Measured values from the nanobody polyreactivity screen of Harvey et al. (2022).

Test: yeast display, Sf9 membrane polyspecificity reagent, FACS + sequencing; frameworks hold sequencing errors
Outline: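 Galactose-induced (36–48 hours) yeast carrying a synthetic nanobody display library were exposed to 10% biotinylated, detergent-solubilized Sf9 membrane reagent at 4 °C for 1 hour. FACS followed streptavidin microbead enrichment, using low and high (top ~1%) gates for expression (anti-HA) and reagent binding (streptavidin). Colony PCR, MiSeq 2 × 250 sequencing and CDR-length filtering followed. Labels for polyreactivity reflect the gate of origin.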

Sequence | polyreactivity (PSR sort gate)
QVQLVESCGGLVQAGGSHRLSCAASGRIFGVYVMGWYRQAPGKERELVAAISWSCSHTYYADSVKGRYTISRDNAKNTVYLQMNSLKPEDTAVYYCNADSYPDYTGPGLDWYDYWGHGTQVTVSS | low polyreactivity
QVQHVESGGGLVQAGGSLRLSCAASGSTFPTYAMGWYRQAPGKERELVADITWSGGSTYYADSVKGRFTISRDNAKNTVYLQMNSLKPEDTAVYYCNAAHRKGMYYWGQGTQVTVSS | high polyreactivity
QVQLVESGGGLVQAGGSLRLSCAASGTTLVRYAMGWYRQAPGKERELVASISYSGGSTHYADSVKGRFTISRDNAKNTVYLQMNSLKPEDTAVYYCAARPYYSWGGHYYWGQGTQVTVSS | high polyreactivity
QVQLVESGGGLVQAGGSLRLSCAASGSTFGVYAMGWYRQAPGKERELVAAISKRGGSTYYADSVKGRFTISRDNAKNTVYLQMNSLKPEDTAVYYCAAGARGLYDYWGQGTQVTVSS | high polyreactivity
QEQLVESGGGLVQAGGTLRLSSAASVNTISPNAMGWYRQPPGKERELVAAIDSRDGIRYYADSVKGRFTISRDNAKNTVYLQMNSLKPEDTAVYYCAPDEWYGESNYWGQGTQVTVSS | low polyreactivity
QVQLVESGGVLVQAGGSLRLSCAASGNTFKHYALGGYRQAPGKEREKVAAISRSGASTNYADSVKGRFTISRDNAKNTVYLQMNSLKPEDTAVYYCAAEYSARKAYLYDYWGQGTQVTVSS | high polyreactivity
QVQLVESGGGLVQAGGSLRLSCAASGSTFYINALGGYRQAPGTERELVAAITWNSDSTYYADSVKGRFTISRDNAKNTVYLQMNSLKPEDTAVYYCNKDRIIWGRLYEEGDYWGQGTQVTVSS | low polyreactivity
QVQLVESGGGLVQAGGSLRLSCAASGRTLYRYAMGWYRQAPGKERELVAAIRSGGRTNYADSVKGRFTISRDNAKNTVYLQMNSLKPEDTAVYYCAARTLRYPSTYDYWGQGTQVTVSS | high polyreactivity
QVQLVDSGGGLVQAGGSLRLSCAASGITIEYNDMGWYRQAPGTERELVAAISLSSGSTYYADSVKGRFTISRDNAKNTVYLQMNSLKPEDTAVYYCNADTIIYEGGYWGQGTQVTVSS | low polyreactivity
QVQLVESGRGLVQAGGSLRLSSAASGRIFPTNAMGWYRQAPGKERELVASIDSGDITHYADSVKGRFTISRDNAMNTVYLQMISLKPEDTAVYYCAKRPQAQYTYITGDDYWGQGTQVTVSS | low polyreactivity
QVQLVDSGGGLVQAGGSLRLSCAASGSIFYTNAMGWYRQAPGKERELVAAISYGGTTTYADSVKGRFTISRDNAKNTVYLQMNSLKPEDTAVYYCNADWLYYGYWGYGHIWYDYWGQGTQVTVSS | low polyreactivity
QVQLVESGGGLVQAGGSLRLSCAASGLIFSYYAMGWYRQAPGKERELVAAISWSGGSTYYADSVKGRFTISRDNAKNTVYLQMNSLKPEDTAVYYCAADRISADYDYWGQGTQVTVSS | low polyreactivity
QVQLVESGGGLVQAGGSLRLSCAASGSIFEPYTMGWYRQAPGKERELVAAITGSGGSTFYADSVKGRFTISRDNAKNTVYLQMNSLKPEDTAVYYCNAFAYPYTDVDYWGQGTQVTVSS | low polyreactivity
QVQLVESGGGLVQAGGSLRLSCAASGSTFWGYAMGWSRQAPGKERELVASITTSDSTYYADSVKGRFTISRDNAKNTVYLQMNSLKPEDSAVYYCAADETWPEYDYWGQGSQVTVSS | low polyreactivity
QVQLVESGGGLVQAGGSLRLICAASGRNFSGNAMGWYTQAPRKERELVAAISTGGSTNYADSVKGRFTISRDNAKNTVYLHMNSLKQEDTAVYYCAADEWRFPSYAYYYWGQGTQVNVSS | low polyreactivity
QVQLVESGGCLVQAGGSLRLSCAASGFTFLDYVMGWYRPAPGKERELVAVITVSGGSTYYADSVKGRFTISRDNAKNTVYLQMTSLKPEDTAVYYCNAYTIEYPFGDSYWYNYDYWGQGTQVTVSS | high polyreactivity
QVQLVESGGGLLQAGGSLRLSCAASGITFVKYTMGWYRQAPGKERELVAAISRSDGRTYYADSVKGRFTISRDNAKNTVYLQMNSLQPEDTEVYYCNAVYGVIGKGYNYWGQGTQVTVSS | high polyreactivity
